The target of this assay is recombinant rabbit PAPPA (rabbit) (UniProt G1SFH7). Briefly: SPR, Biacore 8K+, mAb captured on PrismA chip, PAPPA as analyte, 37 C, mean of n=3. On the technique in general: SPR reads the build-up and loss of mass on a sensor chip optically.

B1: TPP-12744 (antibody, human IgG1, kappa, V domains shown)
VH: QVQLVQSGAEVKKPGASVKVSCKASGYTFTSYAMHWVRQAPGQRLEWMGWMNAGTGATKSSQKFQGRVTITRDTSASTAYMELSSLRSEDTAVYYCARGPSMETPTTFGMDVWGQGTTVTVSS
VL: DIQMTQSPSSVSASVGDRVTITCRASQGISRWLAWYQQKPGKAPKLLIYAASSLQSGVPSRFSGSGSGTDFTLTISSLQPEDFATYYCQQENAYPFTFGGGTKVEIKR
Usually Kd stands for the free concentration of one partner at which half of the binding sites on the other are occupied at equilibrium, for simple one-to-one binding. Broadly, the koff is the rate constant with which the complex falls apart. Broadly, the kon is a measure of how fast the partners come together. For B1, the Kd amounted to 0.17 nM, the koff worked out at 0.000559 s⁻¹ and the kon turned out to be 3.28e+06 M⁻¹ s⁻¹.

Source of the values: patent publication US20260226194A1.
